Experimental data published in patent publication US20200079833A1 (AstraZeneca / MedImmune, published 2020).
Starred links: 1 amine or outer side, 2 acyl side, 3 side chain; linkers in the order of their positions; H or OH if unused. Non-standard residues stand in square brackets, D forms with d. Groups on a side chain read outwards from the residue. Primed or numbered codes have the meaning given here. No end group written: not given here. *: point of attachment. γGlu = O=C(O)[C@H](CCC(=O)[*:2])N[*:1]; Stearoyl = CCCCCCCCCCCCCCCCCC(=O)*; Palmitoyl = CCCCCCCCCCCCCCCC(=O)*; αMeF = C[C@](N)(Cc1ccccc1)C(=O)O; αMeK = C[C@](N)(CCCCN)C(=O)O; αMeS = C[C@](N)(CO)C(=O)O; PEG2′ = not defined here; Aib = CC(C)(N)C(=O)O; Ahx = NCCCCCC(=O)O

T1: glucose-dependent insulinotropic peptide (gastric inhibitory polypeptide) receptor (GIPR) (human, UniProt P48546 22-466)
T1 sequence (looked up): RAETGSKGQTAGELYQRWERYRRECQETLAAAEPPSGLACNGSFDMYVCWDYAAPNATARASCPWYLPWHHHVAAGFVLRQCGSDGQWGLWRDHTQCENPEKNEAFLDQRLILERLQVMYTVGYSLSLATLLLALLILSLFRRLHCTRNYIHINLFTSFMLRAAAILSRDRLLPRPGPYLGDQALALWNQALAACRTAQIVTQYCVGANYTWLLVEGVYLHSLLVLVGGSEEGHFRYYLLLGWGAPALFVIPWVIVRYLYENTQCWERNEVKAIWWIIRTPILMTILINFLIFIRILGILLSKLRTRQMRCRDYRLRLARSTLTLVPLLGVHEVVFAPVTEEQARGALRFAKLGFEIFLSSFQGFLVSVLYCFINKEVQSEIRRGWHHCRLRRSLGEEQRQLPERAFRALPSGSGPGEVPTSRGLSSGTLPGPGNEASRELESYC

B1: SEQ ID NO 78 (peptide)
peptide: H[Aib]EGS[αMeF]TSDV[αMeS]S[αMeF]LEGEAA[αMeK]EK([γGlu-Palmitoyl])IA[αMeF]VV[αMeK]GG-NH2
modifications: N-terminus assumed
SMILES: CCCCCCCCCCCCCCCC(=O)N[C@@H](CCC(=O)NCCCC[C@H](NC(=O)[C@H](CCC(=O)O)NC(=O)[C@](C)(CCCCN)NC(=O)[C@H](C)NC(=O)[C@H](C)NC(=O)[C@H](CCC(=O)O)NC(=O)CNC(=O)[C@H](CCC(=O)O)NC(=O)[C@H](CC(C)C)NC(=O)[C@](C)(Cc1ccccc1)NC(=O)[C@H](CO)NC(=O)[C@](C)(CO)NC(=O)[C@@H](NC(=O)[C@H](CC(=O)O)NC(=O)[C@H](CO)NC(=O)[C@@H](NC(=O)[C@](C)(Cc1ccccc1)NC(=O)[C@H](CO)NC(=O)CNC(=O)[C@H](CCC(=O)O)NC(=O)C(C)(C)NC(=O)[C@@H](N)Cc1c[nH]cn1)[C@@H](C)O)C(C)C)C(=O)N[C@H](C(=O)N[C@@H](C)C(=O)N[C@@](C)(Cc1ccccc1)C(=O)N[C@H](C(=O)N[C@H](C(=O)N[C@@](C)(CCCCN)C(=O)NCC(=O)NCC(N)=O)C(C)C)C(C)C)[C@@H](C)CC)C(=O)O
B2: SEQ ID NO 150 (peptide)
peptide: H[Aib]EGS[αMeF]TSDV[αMeS]S[αMeF]LEGEAAK([Ahx-Ahx-Stearoyl])E[αMeF]IA[αMeF]VV[αMeK]GG-NH2
modifications: N-terminus assumed
SMILES: CCCCCCCCCCCCCCCCCC(=O)NCCCCCC(=O)NCCCCCC(=O)NCCCC[C@H](NC(=O)[C@H](C)NC(=O)[C@H](C)NC(=O)[C@H](CCC(=O)O)NC(=O)CNC(=O)[C@H](CCC(=O)O)NC(=O)[C@H](CC(C)C)NC(=O)[C@](C)(Cc1ccccc1)NC(=O)[C@H](CO)NC(=O)[C@](C)(CO)NC(=O)[C@@H](NC(=O)[C@H](CC(=O)O)NC(=O)[C@H](CO)NC(=O)[C@@H](NC(=O)[C@](C)(Cc1ccccc1)NC(=O)[C@H](CO)NC(=O)CNC(=O)[C@H](CCC(=O)O)NC(=O)C(C)(C)NC(=O)[C@@H](N)Cc1c[nH]cn1)[C@@H](C)O)C(C)C)C(=O)N[C@@H](CCC(=O)O)C(=O)N[C@@](C)(Cc1ccccc1)C(=O)N[C@H](C(=O)N[C@@H](C)C(=O)N[C@@](C)(Cc1ccccc1)C(=O)N[C@H](C(=O)N[C@H](C(=O)N[C@@](C)(CCCCN)C(=O)NCC(=O)NCC(N)=O)C(C)C)C(C)C)[C@@H](C)CC
B3: SEQ ID NO 80 (peptide)
peptide: H[Aib]EGS[αMeF]TSDV[αMeS]S[αMeF]LEGEAAK([γGlu-Palmitoyl])E[αMeF]IA[αMeF]VV[αMeK]GG-NH2
modifications: N-terminus assumed
SMILES: CCCCCCCCCCCCCCCC(=O)N[C@@H](CCC(=O)NCCCC[C@H](NC(=O)[C@H](C)NC(=O)[C@H](C)NC(=O)[C@H](CCC(=O)O)NC(=O)CNC(=O)[C@H](CCC(=O)O)NC(=O)[C@H](CC(C)C)NC(=O)[C@](C)(Cc1ccccc1)NC(=O)[C@H](CO)NC(=O)[C@](C)(CO)NC(=O)[C@@H](NC(=O)[C@H](CC(=O)O)NC(=O)[C@H](CO)NC(=O)[C@@H](NC(=O)[C@](C)(Cc1ccccc1)NC(=O)[C@H](CO)NC(=O)CNC(=O)[C@H](CCC(=O)O)NC(=O)C(C)(C)NC(=O)[C@@H](N)Cc1c[nH]cn1)[C@@H](C)O)C(C)C)C(=O)N[C@@H](CCC(=O)O)C(=O)N[C@@](C)(Cc1ccccc1)C(=O)N[C@H](C(=O)N[C@@H](C)C(=O)N[C@@](C)(Cc1ccccc1)C(=O)N[C@H](C(=O)N[C@H](C(=O)N[C@@](C)(CCCCN)C(=O)NCC(=O)NCC(N)=O)C(C)C)C(C)C)[C@@H](C)CC)C(=O)O
B4: SEQ ID NO 149 (peptide)
peptide: H[Aib]EGS[αMeF]TSDV[αMeS]S[αMeF]LEGEAAK([Ahx-Stearoyl])E[αMeF]IA[αMeF]VV[αMeK]GG-NH2
modifications: N-terminus assumed
SMILES: CCCCCCCCCCCCCCCCCC(=O)NCCCCCC(=O)NCCCC[C@H](NC(=O)[C@H](C)NC(=O)[C@H](C)NC(=O)[C@H](CCC(=O)O)NC(=O)CNC(=O)[C@H](CCC(=O)O)NC(=O)[C@H](CC(C)C)NC(=O)[C@](C)(Cc1ccccc1)NC(=O)[C@H](CO)NC(=O)[C@](C)(CO)NC(=O)[C@@H](NC(=O)[C@H](CC(=O)O)NC(=O)[C@H](CO)NC(=O)[C@@H](NC(=O)[C@](C)(Cc1ccccc1)NC(=O)[C@H](CO)NC(=O)CNC(=O)[C@H](CCC(=O)O)NC(=O)C(C)(C)NC(=O)[C@@H](N)Cc1c[nH]cn1)[C@@H](C)O)C(C)C)C(=O)N[C@@H](CCC(=O)O)C(=O)N[C@@](C)(Cc1ccccc1)C(=O)N[C@H](C(=O)N[C@@H](C)C(=O)N[C@@](C)(Cc1ccccc1)C(=O)N[C@H](C(=O)N[C@H](C(=O)N[C@@](C)(CCCCN)C(=O)NCC(=O)NCC(N)=O)C(C)C)C(C)C)[C@@H](C)CC
B5: SEQ ID NO 79 (peptide)
peptide: H[Aib]EGS[αMeF]TSDV[αMeS]S[αMeF]LEGEAA[αMeK]K([γGlu-Palmitoyl])[αMeF]IA[αMeF]VV[αMeK]GG-NH2
modifications: N-terminus assumed
SMILES: CCCCCCCCCCCCCCCC(=O)N[C@@H](CCC(=O)NCCCC[C@H](NC(=O)[C@](C)(CCCCN)NC(=O)[C@H](C)NC(=O)[C@H](C)NC(=O)[C@H](CCC(=O)O)NC(=O)CNC(=O)[C@H](CCC(=O)O)NC(=O)[C@H](CC(C)C)NC(=O)[C@](C)(Cc1ccccc1)NC(=O)[C@H](CO)NC(=O)[C@](C)(CO)NC(=O)[C@@H](NC(=O)[C@H](CC(=O)O)NC(=O)[C@H](CO)NC(=O)[C@@H](NC(=O)[C@](C)(Cc1ccccc1)NC(=O)[C@H](CO)NC(=O)CNC(=O)[C@H](CCC(=O)O)NC(=O)C(C)(C)NC(=O)[C@@H](N)Cc1c[nH]cn1)[C@@H](C)O)C(C)C)C(=O)N[C@@](C)(Cc1ccccc1)C(=O)N[C@H](C(=O)N[C@@H](C)C(=O)N[C@@](C)(Cc1ccccc1)C(=O)N[C@H](C(=O)N[C@H](C(=O)N[C@@](C)(CCCCN)C(=O)NCC(=O)NCC(N)=O)C(C)C)C(C)C)[C@@H](C)CC)C(=O)O
B6: SEQ ID NO 151 (peptide)
peptide: H[Aib]EGS[αMeF]TSDV[αMeS]S[αMeF]LEGEAAK([Ahx-Ahx-Ahx-Stearoyl])E[αMeF]IA[αMeF]VV[αMeK]GG-NH2
modifications: N-terminus assumed
SMILES: CCCCCCCCCCCCCCCCCC(=O)NCCCCCC(=O)NCCCCCC(=O)NCCCCCC(=O)NCCCC[C@H](NC(=O)[C@H](C)NC(=O)[C@H](C)NC(=O)[C@H](CCC(=O)O)NC(=O)CNC(=O)[C@H](CCC(=O)O)NC(=O)[C@H](CC(C)C)NC(=O)[C@](C)(Cc1ccccc1)NC(=O)[C@H](CO)NC(=O)[C@](C)(CO)NC(=O)[C@@H](NC(=O)[C@H](CC(=O)O)NC(=O)[C@H](CO)NC(=O)[C@@H](NC(=O)[C@](C)(Cc1ccccc1)NC(=O)[C@H](CO)NC(=O)CNC(=O)[C@H](CCC(=O)O)NC(=O)C(C)(C)NC(=O)[C@@H](N)Cc1c[nH]cn1)[C@@H](C)O)C(C)C)C(=O)N[C@@H](CCC(=O)O)C(=O)N[C@@](C)(Cc1ccccc1)C(=O)N[C@H](C(=O)N[C@@H](C)C(=O)N[C@@](C)(Cc1ccccc1)C(=O)N[C@H](C(=O)N[C@H](C(=O)N[C@@](C)(CCCCN)C(=O)NCC(=O)NCC(N)=O)C(C)C)C(C)C)[C@@H](C)CC

Target: T1, glucose-dependent insulinotropic …
Test: cell-based or functional assay

| Binder | cAMP Primary assay EC50 GIP-R | cAMP Primary assay EC50 GIP-R (2nd) |
| --- | --- | --- |
| B1 | 28 nM | 28 nM |
| B2 | 27 nM | 27 nM |
| B3 | 28 nM | 28 nM |
| B4 | 28 nM | 28 nM |
| H[Aib]EGS[αMeF]TSDV[αMeS]S[αMeF]LEGEAAK([PEG2′-Stearoyl])E[αMeF]IA[αMeF]VV[αMeK]GG-NH2 [SEQ ID NO 152] | 28 nM | 28 nM |
| B5 | 28 nM | 28 nM |
| B6 | 26 nM | 26 nM |

Target: GLP-1 receptor (GLP-1R) (human, UniProt P43220 24-463)
Test: cell-based or functional assay

| Binder | cAMP Mean pM GLP-1R | cAMP Primary assay EC50 GLP-1R n1 | cAMP Primary assay EC50 GLP-1R n2 |
| --- | --- | --- | --- |
| B1 | 14 pM | 18 pM | 9.3 pM |
| B2 | 25.4 pM | 28 pM | 22 pM |
| B3 | 24 pM | 31 pM | 17 pM |
| B4 | 66.2 pM | 81 pM | 51 pM |
| H[Aib]EGS[αMeF]TSDV[αMeS]S[αMeF]LEGEAAK([PEG2′-Stearoyl])E[αMeF]IA[αMeF]VV[αMeK]GG-NH2 [SEQ ID NO 152] | 34.7 pM | 39 pM | 31 pM |
| B5 | 3.1 pM | 3.9 pM | 2.3 pM |
| B6 | 18.2 pM | 22 pM | 15 pM |

Target: glucagon receptor (GCGR) (human, UniProt P47871 26-477)
Sequence (P47871 26-477): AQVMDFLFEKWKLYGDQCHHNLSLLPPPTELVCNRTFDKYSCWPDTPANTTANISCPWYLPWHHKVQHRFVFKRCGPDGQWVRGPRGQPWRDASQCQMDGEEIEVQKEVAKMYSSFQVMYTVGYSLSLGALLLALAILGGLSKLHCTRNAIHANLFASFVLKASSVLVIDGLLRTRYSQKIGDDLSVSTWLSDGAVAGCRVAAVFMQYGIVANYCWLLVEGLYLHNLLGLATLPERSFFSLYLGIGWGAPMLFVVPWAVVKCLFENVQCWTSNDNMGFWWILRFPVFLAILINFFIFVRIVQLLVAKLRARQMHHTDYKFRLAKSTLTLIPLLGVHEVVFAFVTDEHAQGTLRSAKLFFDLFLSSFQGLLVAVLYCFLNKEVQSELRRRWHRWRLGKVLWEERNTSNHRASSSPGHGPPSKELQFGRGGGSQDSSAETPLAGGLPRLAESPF
Test: cell-based or functional assay

| Binder | cAMP Primary assay EC50 Gluc-R | cAMP Primary assay EC50 Gluc-R (2nd) |
| --- | --- | --- |
| B1 | 28 nM | 28 nM |
| B2 | 27 nM | 27 nM |
| B3 | 28 nM | 28 nM |
| B4 | 28 nM | 28 nM |
| H[Aib]EGS[αMeF]TSDV[αMeS]S[αMeF]LEGEAAK([PEG2′-Stearoyl])E[αMeF]IA[αMeF]VV[αMeK]GG-NH2 [SEQ ID NO 152] | 28 nM | 28 nM |
| B5 | 28 nM | 28 nM |
| B6 | 26 nM | 26 nM |
